Laboratory results from article PMC8443744.

Target: senataxin (SETX), endogenous (human (endogenous in MRC-5)) (UniProt Q7Z333)
Assay: proximity ligation; Duolink PLA in methanol-fixed MRC-5 cells with antibodies against the two endogenous proteins; cells mock treated (DMSO), 25 uM CPT for 10 min, or 50 uM alpha-amanitin overnight followed by CPT

Chain of UniProt Q7Z333 (Q7Z333 whole entry): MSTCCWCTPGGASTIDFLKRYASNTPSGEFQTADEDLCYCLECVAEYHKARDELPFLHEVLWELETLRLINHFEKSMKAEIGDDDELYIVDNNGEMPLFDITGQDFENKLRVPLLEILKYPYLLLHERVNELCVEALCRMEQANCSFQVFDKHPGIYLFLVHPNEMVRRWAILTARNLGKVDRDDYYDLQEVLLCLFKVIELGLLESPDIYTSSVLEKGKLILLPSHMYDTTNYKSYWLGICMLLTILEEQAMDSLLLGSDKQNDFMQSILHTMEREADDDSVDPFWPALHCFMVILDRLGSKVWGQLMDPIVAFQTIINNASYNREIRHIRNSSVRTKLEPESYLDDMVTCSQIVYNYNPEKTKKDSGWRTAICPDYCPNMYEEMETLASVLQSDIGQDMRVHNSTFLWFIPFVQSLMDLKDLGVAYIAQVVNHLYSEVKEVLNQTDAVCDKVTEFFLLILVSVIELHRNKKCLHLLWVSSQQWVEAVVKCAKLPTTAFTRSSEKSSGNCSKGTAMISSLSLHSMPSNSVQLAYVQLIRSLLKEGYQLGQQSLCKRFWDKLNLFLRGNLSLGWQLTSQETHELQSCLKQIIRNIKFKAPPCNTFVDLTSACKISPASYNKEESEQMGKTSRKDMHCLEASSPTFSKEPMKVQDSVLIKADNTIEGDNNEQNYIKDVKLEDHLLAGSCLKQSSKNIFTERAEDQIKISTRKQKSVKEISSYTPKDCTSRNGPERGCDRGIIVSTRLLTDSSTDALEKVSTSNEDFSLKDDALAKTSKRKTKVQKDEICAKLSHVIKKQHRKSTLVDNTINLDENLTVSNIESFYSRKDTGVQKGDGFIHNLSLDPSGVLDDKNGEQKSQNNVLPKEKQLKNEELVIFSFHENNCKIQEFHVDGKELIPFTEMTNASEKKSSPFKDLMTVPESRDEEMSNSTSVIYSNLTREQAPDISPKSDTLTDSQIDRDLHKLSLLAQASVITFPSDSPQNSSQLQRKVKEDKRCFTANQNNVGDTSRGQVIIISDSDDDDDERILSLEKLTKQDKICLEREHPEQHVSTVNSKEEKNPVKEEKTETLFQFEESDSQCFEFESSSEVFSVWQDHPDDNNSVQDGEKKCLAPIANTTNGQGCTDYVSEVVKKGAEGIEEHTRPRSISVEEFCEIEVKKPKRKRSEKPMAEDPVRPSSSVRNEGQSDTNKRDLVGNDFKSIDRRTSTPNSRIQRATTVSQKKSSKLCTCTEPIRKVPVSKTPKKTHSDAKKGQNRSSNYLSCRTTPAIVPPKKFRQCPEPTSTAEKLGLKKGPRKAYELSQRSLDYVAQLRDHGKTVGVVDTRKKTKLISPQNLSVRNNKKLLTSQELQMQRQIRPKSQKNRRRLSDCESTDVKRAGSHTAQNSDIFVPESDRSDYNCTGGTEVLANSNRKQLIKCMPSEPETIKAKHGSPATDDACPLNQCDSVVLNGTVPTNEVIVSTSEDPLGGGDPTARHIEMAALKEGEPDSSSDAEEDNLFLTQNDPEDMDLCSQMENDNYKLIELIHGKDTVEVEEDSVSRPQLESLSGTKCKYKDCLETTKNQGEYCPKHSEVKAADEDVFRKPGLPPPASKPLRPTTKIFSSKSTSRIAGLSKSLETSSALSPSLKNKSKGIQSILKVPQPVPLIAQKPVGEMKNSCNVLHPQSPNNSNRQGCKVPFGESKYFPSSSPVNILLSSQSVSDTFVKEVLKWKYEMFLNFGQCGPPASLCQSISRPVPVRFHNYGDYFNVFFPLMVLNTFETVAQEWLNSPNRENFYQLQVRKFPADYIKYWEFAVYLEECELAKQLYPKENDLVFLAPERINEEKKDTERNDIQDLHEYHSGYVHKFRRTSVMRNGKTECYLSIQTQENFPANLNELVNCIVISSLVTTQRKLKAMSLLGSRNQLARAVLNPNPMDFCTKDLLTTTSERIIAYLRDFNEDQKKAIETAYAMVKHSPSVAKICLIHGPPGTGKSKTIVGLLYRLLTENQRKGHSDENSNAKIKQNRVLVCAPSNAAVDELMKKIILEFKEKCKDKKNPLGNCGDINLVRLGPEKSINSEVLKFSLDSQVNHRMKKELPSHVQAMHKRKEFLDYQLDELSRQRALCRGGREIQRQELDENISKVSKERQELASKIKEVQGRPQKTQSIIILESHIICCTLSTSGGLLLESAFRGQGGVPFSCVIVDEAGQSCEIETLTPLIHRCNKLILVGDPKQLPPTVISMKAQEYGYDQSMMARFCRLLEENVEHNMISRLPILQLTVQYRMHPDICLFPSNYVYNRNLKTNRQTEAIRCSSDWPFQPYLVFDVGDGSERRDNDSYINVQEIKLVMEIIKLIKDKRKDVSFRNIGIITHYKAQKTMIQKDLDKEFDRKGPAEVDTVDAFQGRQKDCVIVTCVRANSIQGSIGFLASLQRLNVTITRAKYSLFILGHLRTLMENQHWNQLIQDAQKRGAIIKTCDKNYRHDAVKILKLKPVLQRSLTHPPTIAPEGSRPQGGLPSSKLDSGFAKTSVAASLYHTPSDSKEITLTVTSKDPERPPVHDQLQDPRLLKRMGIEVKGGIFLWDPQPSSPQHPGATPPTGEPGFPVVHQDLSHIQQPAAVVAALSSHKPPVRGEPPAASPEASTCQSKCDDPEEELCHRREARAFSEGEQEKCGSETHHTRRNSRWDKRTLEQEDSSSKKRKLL

Substance: ubiquitin specific peptidase 11 (USP11), endogenous (from UniProt P51784 1-963)
- fold increase in PLA signal after CPT (against unperturbed cells): 5 fold
